Earlier results as cited in article PMC2375062.

Target: uPA (Homo sapiens) (UniProt P00749)

Substance: glu-plasminogen (from UniProt P00747)
- Kd: 50 nM
